From article PMC11074019 come the findings set out here.

Assay [1] addresses Transient receptor potential channel ankyrin 1 (TRPA1) (human (endogenous in MDA-MB-231)) (UniProt O75762).
The target is the same in assay [2]. The source holds these as a separate data set.

Chain of UniProt O75762 (O75762 whole entry): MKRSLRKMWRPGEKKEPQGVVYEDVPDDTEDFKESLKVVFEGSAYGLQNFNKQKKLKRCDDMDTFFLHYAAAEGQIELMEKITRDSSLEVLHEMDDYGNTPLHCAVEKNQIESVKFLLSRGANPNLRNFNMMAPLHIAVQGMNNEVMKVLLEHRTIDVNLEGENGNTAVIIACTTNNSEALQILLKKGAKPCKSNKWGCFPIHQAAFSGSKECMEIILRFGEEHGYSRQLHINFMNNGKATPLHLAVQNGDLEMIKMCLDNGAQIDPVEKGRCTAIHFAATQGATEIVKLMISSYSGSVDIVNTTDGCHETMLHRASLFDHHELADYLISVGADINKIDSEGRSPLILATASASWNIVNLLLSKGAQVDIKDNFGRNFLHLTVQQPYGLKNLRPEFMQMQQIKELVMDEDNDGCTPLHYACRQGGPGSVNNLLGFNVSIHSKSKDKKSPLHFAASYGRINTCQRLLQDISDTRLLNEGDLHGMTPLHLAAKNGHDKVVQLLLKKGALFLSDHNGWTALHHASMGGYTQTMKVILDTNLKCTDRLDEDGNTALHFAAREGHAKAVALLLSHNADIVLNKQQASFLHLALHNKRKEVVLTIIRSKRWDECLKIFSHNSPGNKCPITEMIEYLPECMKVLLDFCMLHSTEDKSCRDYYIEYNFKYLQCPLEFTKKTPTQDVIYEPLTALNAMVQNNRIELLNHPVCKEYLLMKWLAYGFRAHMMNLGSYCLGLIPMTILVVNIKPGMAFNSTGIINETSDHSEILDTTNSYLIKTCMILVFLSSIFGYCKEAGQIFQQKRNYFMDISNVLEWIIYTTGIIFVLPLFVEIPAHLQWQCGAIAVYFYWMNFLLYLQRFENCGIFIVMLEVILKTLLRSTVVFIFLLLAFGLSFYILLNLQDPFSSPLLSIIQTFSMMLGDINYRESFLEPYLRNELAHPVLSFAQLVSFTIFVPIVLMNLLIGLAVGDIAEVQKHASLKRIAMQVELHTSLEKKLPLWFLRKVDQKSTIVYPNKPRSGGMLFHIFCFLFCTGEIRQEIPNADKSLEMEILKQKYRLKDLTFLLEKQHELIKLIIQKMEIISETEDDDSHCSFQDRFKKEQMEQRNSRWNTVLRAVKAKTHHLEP

In assay [1], “Recombinant rat NCS-1 (Ca2+-free) (from UniProt P62168 1-190) (natural protein)” came in with an inward conductance (IG TRPA1) in inside-out patches of MDA-MB-231 CTR cells, without vs with NCS-1 of 104 pS; an inward conductance (IG TRPA1) in inside-out patches of SH-SY5Y cells, without vs with NCS-1 of 110 pS; an outward conductance (OG TRPA1) in inside-out patches of MDA-MB-231 CTR cells, without vs with NCS-1 of 155 pS; an outward conductance (OG TRPA1) in inside-out patches of SH-SY5Y cells, without vs with NCS-1 of 169 pS. This substance displayed an open probability (Po) of AITC-activated TRPA1 single channels in inside-out patches of MDA-MB-231 CTR cells, with NCS-1 (10 μM) vs without in assay [2] of 0.883.
